In IntAct's records for PubMed 14507921:

Target: ANTXR1, Q9H6X2-2
Sequence (Q9H6X2 other isoform, or with tags, fused parts or gaps): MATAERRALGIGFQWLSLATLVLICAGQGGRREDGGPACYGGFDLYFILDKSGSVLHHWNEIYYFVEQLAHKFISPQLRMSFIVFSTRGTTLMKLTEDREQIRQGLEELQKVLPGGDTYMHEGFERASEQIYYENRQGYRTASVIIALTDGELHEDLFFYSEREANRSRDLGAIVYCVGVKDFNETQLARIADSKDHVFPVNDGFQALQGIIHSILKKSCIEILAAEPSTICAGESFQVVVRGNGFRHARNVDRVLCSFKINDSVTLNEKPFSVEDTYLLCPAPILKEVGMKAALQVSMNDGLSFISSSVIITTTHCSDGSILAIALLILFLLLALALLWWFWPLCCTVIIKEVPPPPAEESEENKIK

Substance: Protective antigen (Bacillus anthracis) (from UniProt P13423) D712N
- effect of a mutation on the interaction: decreasing interaction
